Measured values reported in patent publication US20250188139A1 (published 2025).
Changes are numbered by the printed parent chain.

B1: Clone 15 (protein)
chain: NTEILKSIDNEWRKTQCMPREVAIDVGKEFGVATNTFFKPPCVSVYRCGGCCISEGLQCMNTSTSYLSKTLFEITVPISQGPKPVTISFANHTSCRCMSKL
B2: Clone 39 (protein)
chain: B1 chain with S54R, I78L
B3: Clone 8 (protein)
chain: B1 chain with I53Q, S54G, I78L
B4: WT VEGFC (protein)
chain: B1 chain with A23C, I53N, I78L
B5: Clone 13 (protein)
chain: B1 chain with I78L
B6: Clone 31 (protein)
chain: B1 chain with I53H, I78L
B7: Clone 16 (protein)
chain: B1 chain with S54G
B8: Clone 19 (protein)
chain: B1 chain with I53N, S54G, I78L
B9: Clone 7 (protein)
chain: B1 chain with I53Q, I78L
B10: Clone 21 (protein)
chain: B1 chain with I53N, S54G
B11: Clone 14 (protein)
chain: B1 chain with S54G, I78L
B12: Clone 10 (protein)
chain: B1 chain with I53Q, S54G
B13: Clone 9 (protein)
chain: B1 chain with I53Q
B14: WT (ligand)
chain: B1 chain with A23C, V32A, I53N, S65G, I78L

Target: T1, Human VEGFR-3 extracellular domain (amino acids 25-329), AviTag, hexahistidine tag, biotinylated (human, UniProt P35916 25-329, biotinylated with BirA ligase (AviTag))
T1 chain (part 1 of 2): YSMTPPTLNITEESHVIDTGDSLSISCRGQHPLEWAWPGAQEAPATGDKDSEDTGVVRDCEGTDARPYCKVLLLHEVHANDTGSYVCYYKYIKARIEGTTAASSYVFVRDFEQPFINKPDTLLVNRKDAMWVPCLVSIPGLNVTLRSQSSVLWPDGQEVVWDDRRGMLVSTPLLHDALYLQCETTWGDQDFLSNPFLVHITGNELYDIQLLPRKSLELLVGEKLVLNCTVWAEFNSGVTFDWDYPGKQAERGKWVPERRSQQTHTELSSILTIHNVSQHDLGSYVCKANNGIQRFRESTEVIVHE
T1 chain (part 2 of 2): HHHHHH
Test: yeast display flow cytometry binding

Q: Which EC50 does the source give for B1 here?
A: 21.5 nM

Q: How did the EC50 turn out when B2 was run?
A: 104 nM

Q: B3 was tested. Which EC50 did it give?
A: 124 nM

Q: With B4 as the binder, how does the EC50 read?
A: 34.8 nM

Q: With B5 as the binder, how does the EC50 read?
A: 32.3 nM

Q: Which EC50 does the source give for B6 here?
A: 94.5 nM

Q: For B7, which EC50 is on record?
A: 36.8 nM

Q: Which EC50 does the source give for B8 here?
A: 51.3 nM

Q: For B9, which EC50 is on record?
A: 71 nM

Q: Which EC50 does the source give for B10 here?
A: 44.8 nM

Q: With B11 as the binder, how does the EC50 read?
A: 74.5 nM

Q: How did the EC50 turn out when B12 was run?
A: 65.5 nM

Q: How did the EC50 turn out when B13 was run?
A: 65.7 nM

Target: VEGFR3
Test: SPR

Q: B14 was tested. Which Kd did it give?
A: 0.0107 nM

Target: VEGFR2
Test: SPR

Q: For B14, which Kd is on record?
A: 0.227 nM
